# Legend:
# [1] = target: DEBSIII TE wild type (thioesterase domain of the erythromycin polyketide synthase DEBSIII) (Saccharopolyspora erythrea); test: SEC
# [2] = target: TylG5 TE wild type (thioesterase domain of the tylosin polyketide synthase TylG5) (Streptomyces fradiae); test: SEC
stoichiometry N [1],stoichiometry N [2],Substance
2,–,DEBSIII TE wild type (thioesterase domain of the erythromycin polyketide synthase DEBSIII) (domain or fragment)
–,2,TylG5 TE wild type (thioesterase domain of the tylosin polyketide synthase TylG5) (domain or fragment)

# Reference: paper PMC11804868
